Assay results as given in patent US20220265770A1, “TREATING NEURODEGENERATIVE DISEASES WITH PROGRANULIN” (NEURODYN, INC., priority 2008, published 2022).

Columns and labels:
PC12 cells = test: Protection against MPTP toxicity in PC12 cells (MTT); type: cell-based; conditions: 4 nM progranulin 24 h pretreatment; 0-1000 μM MPTP 24 h
Protocol: PC12 cells were grown on collagen-coated 96-well plates, in Dulbecco's minimal essential medium (DMEM) in the presence of 10% fetal calf serum (FCS) supplemented with glutamine, penicillin and streptomycin. One day after plating (at 60-70% confluence, 40,000 cells/well), the growth medium was replaced by low-serum (2% FCS) medium with 4 nM progranulin (PGRN+) or without progranulin (PGRN−) (FIG. 19). […] 43(5-6):155-158 (2007)]

NSC-34 cells [1] = test: BSSG-induced toxicity in NSC-34 and NSC-34-hPGRN cells (MTT); type: cell-based
Protocol: Normal NSC-34 and a stable NSC-34 transfectant that over expressed human PGRN (NSC-34-hPGRN) NCS34 were maintained in culture using DMEM supplemented with 5% (v/v) fetal calf serum (FCS). Cells were aliquoted in 96-well plates at a density of 8,000 cells/well in 200 uL of DMEM 5% FCS.d After two hours the neurotoxin Beta-sitosteryl glucoside (BSSG) was added at concentrations of 0, 100, 250, 500, 1000 and 2500 ng/mL with a final culture volume of 250 uL along with 0.1% (v/v) DMSO throughout. As a negative control for cell proliferation/survival, a series of wells were washed and media replaced with DMEM containing no FCS. Following 72 hours cell viability was measured using the MTT assay (Vybrant MTT Cell proliferation Assay; Invitrogen) according to manufacturer's instructions.
To determine if PGRN was capable of protecting NSC-34 cells against BSSG neurotoxicity a stable transfectant was developed to over express human PGRN constitutively.

NSC-34 cells [2] = test: NSC-34 serum deprivation with hPGRN protein (Alamar Blue); type: cell-based; conditions: hPGRN 100 ng/ml, Day 4, Alamar Blue
Protocol: Normal NSC-34 cells were maintained in culture using DMEM supplemented with 5% (v/v) fetal calf serum (FCS). Cells were aliquoted in 96-well plates at a density of 6,000 cells/well in 200 uL of DMEM 5% FCS. After 2 hours of culture (to ensure cell adhesion) media was removed, cells washed 1× with PBS and DMEM serum free medium with or without hPGRN (100 ng/ml) added to the cells. Following one and four days of culture remaining metabolically active cells were detected using the Alamar Blue® methodology (Molecular Probes/Invitrogen) following the manufacturer's instructions.

rat motor neurons = conditions: literature (Van Damme et al.); cited from earlier work

B1: Progranulin: growth factor-like protein; human progranulin SEQ ID NO: 2 (protein, listed as Homo sapiens)
chain: MWTLVSWVALTAGLVAGTRCPDGQFCPVACCLDPGGASYSCCRPLLDKWPTTLSRHLGGPCQVDAHCSAGHSCIFTVSGTSSCCPFPEAVACGDGHHCCPRGFHCSADGRSCFQRSGNNSVGAIQCPDSQFECPDFSTCCVMVDGSWGCCPMPQASCCEDRVHCCPHGAFCDLVHTRCITPTGTHPLAKKLPAQRTNRAVALSSSVMCPDARSRCPDGSTCCELPSGKYGCCPMPNATCCSDHLHCCPQDTVCDLIQSKCLSKENATTDLLTKLPAHTVGDVKCDMEVSCPDGYTCCRLQSGAWGCCPFTQAVCCEDHIHCCPAGFTCDTQKGTCEQGPHQVPWMEKAPAHLSLPDPQALKRDVPCDNVSSCPSSDTCCQLTSGEWGCCPIPEAVCCSDHQHCCPQGYTCVAEGQCQRGSEIVAGLEKMPARRASLSHPRDIGCDQHTSCPVGQTCCPSLGGSWACCQLPHAVCCEDRQHCCPAGYTCNVKARSCEKEVVSAQPATFLARSPHVGVKDVECGEGHFCHDNQTCCRDNRQGWACCPYRQGVCCADRRHCCPAGFRCAARGTKCLRREAPRWDAPLRDPALRQLL
cell viability against MPTP (MTT) (PC12 cells): protective effect | cell survival in serum free cultures (MTT) (NSC-34 cells [1]; PGRN over expression, 72 hours, no FCS): increased cell survival | protection against BSSG neurotoxicity (MTT) (NSC-34 cells [1]; stable transfectant over expressing human PGRN, 72 hour, 1000 and 2500 ng/mL BSSG): protected NSC-34 cells | increase in cell survival following serum starvation (NSC-34 cells [2]): 2.5 fold | survival of rat motor neurons under serum deprivation (rat motor neurons): increased survival of rat motor neurons
